Assay results published in patent US20060257938A1, “Method of screening for drugs that block ligand binding to a lipid binding protein” (priority 2005, published 2006).

Legend:
Assay type in all cases: binding
[1] = Probe fluorescence ratio response to arachidonic acid relative to ADIFAB2; conditions: Arachidonic acid; response relative to ADIFAB2
Procedure, shortened: (§1)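 Fluorescently labeled rat intestinal FABP variants were read at two emission wavelengths, near the unbound maximum (about 420 to 480 nm) and the FFA-bound maximum (about 495 to 580 nm). R = Fλ1/Fλ2 after subtracting probe-free intensity; ΔR = R+agent − R0, normalized to ADIFAB2 (rI-FABP-L72A).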

[2] = Probe fluorescence ratio response to palmitic acid relative to ADIFAB2; conditions: response relative to ADIFAB2
Procedure, shortened: as §1

[3] = Probe fluorescence ratio response to linolenic acid relative to ADIFAB2; conditions: response relative to ADIFAB2
Procedure, shortened: as §1

[4] = Probe fluorescence ratio response to linoleic acid relative to ADIFAB2; conditions: response relative to ADIFAB2
Procedure, shortened: as §1

[5] = Probe fluorescence ratio response to oleic acid relative to ADIFAB2; conditions: response relative to ADIFAB2
Procedure, shortened: as §1

Row | Molecule | DR/DR AA [1] | DR/DR PA [2] | DR/DR LNA [3] | DR/DR LA [4] | DR/DR OA [5]
1 | 51D1, 72A (protein, listed as Rattus norvegicus, PEPTIDE (1)...(131) wild-type rat intestinal fatty acid binding protein) AFDGTWKVDRNENYEKFMEKMGINVVKRKLGAHDNLKLTITQEGNKFTVKDSSNFRNIDVVFELGVDFAYSAADGTELTGTWTMEGNKLVGKFKRVDNGKELIAVREISGNELIQTYTYEGVEAKRIFKKE | 1.34 | 0.68 | 1.39 | 1.38 | 1.28
2 | 51F1, 72A (protein, listed as Rattus norvegicus, PEPTIDE (1)...(131) wild-type rat intestinal fatty acid binding protein) AFDGTWKVDRNENYEKFMEKMGINVVKRKLGAHDNLKLTITQEGNKFTVKFSSNFRNIDVVFELGVDFAYSAADGTELTGTWTMEGNKLVGKFKRVDNGKELIAVREISGNELIQTYTYEGVEAKRIFKKE | 1.64 | 0.76 | 1.60 | 1.70 | 1.47
3 | 51G1, 72A (protein, listed as Rattus norvegicus, PEPTIDE (1)...(131) wild-type rat intestinal fatty acid binding protein) AFDGTWKVDRNENYEKFMEKMGINVVKRKLGAHDNLKLTITQEGNKFTVKGSSNFRNIDVVFELGVDFAYSAADGTELTGTWTMEGNKLVGKFKRVDNGKELIAVREISGNELIQTYTYEGVEAKRIFKKE | 1.64 | 0.78 | 1.76 | 1.71 | 1.57
4 | 51H1, 72A (protein, listed as Rattus norvegicus, PEPTIDE (1)...(131) wild-type rat intestinal fatty acid binding protein) AFDGTWKVDRNENYEKFMEKMGINVVKRKLGAHDNLKLTITQEGNKFTVKHSSNFRNIDVVFELGVDFAYSAADGTELTGTWTMEGNKLVGKFKRVDNGKELIAVREISGNELIQTYTYEGVEAKRIFKKE | 1.52 | 0.81 | 1.58 | 1.64 | 0.58
5 | 51I1, 72A (protein, listed as Rattus norvegicus, PEPTIDE (1)...(131) wild-type rat intestinal fatty acid binding protein) AFDGTWKVDRNENYEKFMEKMGINVVKRKLGAHDNLKLTITQEGNKFTVKISSNFRNIDVVFELGVDFAYSAADGTELTGTWTMEGNKLVGKFKRVDNGKELIAVREISGNELIQTYTYEGVEAKRIFKKE | 1.50 | 0.72 | 1.62 | 1.55 | 1.41
6 | 51K1, 72A (protein, listed as Rattus norvegicus, PEPTIDE (1)...(131) wild-type rat intestinal fatty acid binding protein) AFDGTWKVDRNENYEKFMEKMGINVVKRKLGAHDNLKLTITQEGNKFTVKKSSNFRNIDVVFELGVDFAYSAADGTELTGTWTMEGNKLVGKFKRVDNGKELIAVREISGNELIQTYTYEGVEAKRIFKKE | 1.00 | 0.56 | 1.02 | −0.01 | 1.01
7 | 51L3, 72A (protein, listed as Rattus norvegicus, PEPTIDE (1)...(131) wild-type rat intestinal fatty acid binding protein) AFDGTWKVDRNENYEKFMEKMGINVVKRKLGAHDNLKLTITQEGNKFTVKLSSNFRNIDVVFELGVDFAYSAADGTELTGTWTMEGNKLVGKFKRVDNGKELIAVREISGNELIQTYTYEGVEAKRIFKKE | 1.64 | 0.76 | 1.66 | 1.65 | 1.45
